For experiment [1], the target named is HLA-B*53:01. The experiment is described as follows: IEDB peptide-MHC binding, purified MHC/competitive/fluorescence; filed as Kd, often an IC50 or EC50 that approximates it; ≥ and ≤ were set here for values at or beyond the usual limits of such assays. The following applies: source organism: Mycobacterium tuberculosis variant bovis BCG str. Pasteur 1173P2.
Experiment [2] deals with HLA-A*30:02. The experiment is described as above. The following applies: source organism: Mycobacterium tuberculosis variant bovis BCG str. Pasteur 1173P2.
Experiment [3] concerns the target HLA-B*08:01. The experiment is described as above.
The target of experiment [4] is HLA-B*14:02. The experiment is described as above. The settings on record: source organism: Mycobacterium tuberculosis variant bovis BCG str. Pasteur 1173P2.
The target in experiment [5] is HLA-A*11:01. Described as above.
In experiment [6] the target is HLA-A*01:01. Described as above.
Experiment [7] has as its target HLA-B*27:05. The description is as above.
For experiment [8], the target named is HLA-B*44:02. Described as above. The following applies: source organism: Mycobacterium tuberculosis variant bovis BCG str. Pasteur 1173P2.
Experiment [9] deals with HLA-A*23:01. The experiment is described as above. The settings on record: source organism: Mycobacterium tuberculosis variant bovis BCG str. Pasteur 1173P2.
The target in experiment [10] is HLA-A*30:01. The description is as above.
For experiment [11], the target named is HLA-A*66:01. Described as above. The following applies: source organism: Mycobacterium tuberculosis variant bovis BCG str. Pasteur 1173P2.
Experiment [12] deals with HLA-B*58:01. The experiment is described as above.
Experiment [13] deals with HLA-B*40:01. The experiment is described as above.
Experiment [14] deals with HLA-B*27:03. As to the kind of experiment: IEDB peptide-MHC binding, purified MHC/direct/fluorescence; filed as Kd, often an IC50 or EC50 that approximates it; ≥ and ≤ were set here for values at or beyond the usual limits of such assays. The following applies: source organism: Mycobacterium tuberculosis str. Haarlem.
Experiment [15] concerns the target HLA-A*29:02. Described as above. The following applies: source organism: Mycobacterium tuberculosis str. Haarlem.
For experiment [16], the target named is HLA-A*26:01. Described as above. The settings on record: source organism: Mycobacterium tuberculosis str. Haarlem.
The target in experiment [17] is HLA-A*02:12. The description is as above. The following applies: source organism: Mycobacterium tuberculosis str. Haarlem.
Experiment [18] deals with HLA-A*02:06. The experiment is described as above. The following applies: source organism: Mycobacterium tuberculosis str. Haarlem.
Experiment [19] concerns the target HLA-B*51:01. Described as above. The following applies: source organism: Mycobacterium tuberculosis str. Haarlem.
In experiment [20] the target is HLA-A*02:01. Described as above. The settings on record: source organism: Mycobacterium tuberculosis str. Haarlem.
In experiment [21] the target is HLA-B*57:01. The description is as above. The settings on record: source organism: Mycobacterium tuberculosis str. Haarlem.
The target of experiment [22] is HLA-B*39:01. The description is as above. The following applies: source organism: Mycobacterium tuberculosis str. Haarlem.
The target of experiment [23] is HLA-A*03:01. The experiment is described as above. The settings on record: source organism: Mycobacterium tuberculosis str. Haarlem.
Experiment [24] deals with HLA-A*24:03. The experiment is described as above. The following applies: source organism: Mycobacterium tuberculosis str. Haarlem.
For experiment [25], the target named is HLA-B*18:01. Described as above. The following applies: source organism: Mycobacterium tuberculosis str. Haarlem.
The target of experiment [26] is HLA-B*46:01. The description is as above. The settings on record: source organism: Mycobacterium tuberculosis str. Haarlem.
For experiment [27], the target named is HLA-B*48:01. The experiment is described as follows: IEDB peptide-MHC binding, purified MHC/competitive/fluorescence; filed as Kd, often an IC50 or EC50 that approximates it; ≥ and ≤ were set here for values at or beyond the usual limits of such assays. The following applies: source organism: Salmonella enterica subsp. enterica serovar Typhi.
Experiment [28] concerns the target HLA-B*15:17. The description is as above. The settings on record: source organism: Salmonella enterica subsp. enterica serovar Typhi.
The target in experiment [29] is HLA-A*02:06. The experiment is described as above. The settings on record: source organism: Salmonella enterica subsp. enterica serovar Typhi.
For experiment [30], the target named is HLA-A*31:01. The description is as above. The settings on record: source organism: Salmonella enterica subsp. enterica serovar Typhi.
The target in experiment [31] is HLA-B*07:02. The description is as above. The following applies: source organism: Salmonella enterica subsp. enterica serovar Typhi.
In experiment [32] the target is HLA-A*02:01. The description is as above. The settings on record: source organism: Salmonella enterica subsp. enterica serovar Typhi.
The target in experiment [33] is HLA-B*38:01. Described as above. The settings on record: source organism: Salmonella enterica subsp. enterica serovar Typhi.
The target in experiment [34] is HLA-A*03:01. The experiment is described as above. The settings on record: source organism: Salmonella enterica subsp. enterica serovar Typhi.
Experiment [35] deals with HLA-B*15:09. Described as above. The settings on record: source organism: Salmonella enterica subsp. enterica serovar Typhi.
Experiment [36] concerns the target HLA-A*69:01. The experiment is described as above. The following applies: source organism: Salmonella enterica subsp. enterica serovar Typhi.
Experiment [37] deals with HLA-B*15:01. Described as above. The settings on record: source organism: Salmonella enterica subsp. enterica serovar Typhi.
Experiment [38] deals with HLA-A*02:03. The experiment is described as above. The settings on record: source organism: Salmonella enterica subsp. enterica serovar Typhi.
Experiment [39] has as its target HLA-B*46:01. The description is as above. The settings on record: source organism: Salmonella enterica subsp. enterica serovar Typhi.
Experiment [40] deals with HLA-C*05:01. The experiment is described as follows: IEDB peptide-MHC binding, purified MHC/direct/fluorescence; filed as Kd, often an IC50 or EC50 that approximates it; ≥ and ≤ were set here for values at or beyond the usual limits of such assays. The following applies: source organism: Salmonella enterica subsp. enterica serovar Typhi str. CT18.
Experiment [41] concerns the target HLA-B*44:02. As to the kind of experiment: IEDB peptide-MHC binding, purified MHC/competitive/fluorescence; ≥ and ≤ were set here for values at or beyond the usual limits of such assays. The following applies: source organism: Homo sapiens.
Experiment [42] addresses HLA-A*24:02. Described as above. The following applies: source organism: Homo sapiens.
Experiment [43] addresses HLA-A*11:01. As to the kind of experiment: IEDB peptide-MHC binding, purified MHC/competitive/radioactivity; ≥ and ≤ were set here for values at or beyond the usual limits of such assays. The settings on record: source organism: Rhinovirus C.
The mark [44] stands for this setting: source organism: Mycobacterium tuberculosis variant bovis BCG str. Pasteur 1173P2.
[45] abbreviates: source organism: Salmonella enterica subsp. enterica serovar Typhi.

Turning to RVACRDVEV, the Kd in experiment [1] is at least 5 µM; in [2], at least 5 µM; in experiment [3] (setting [44]), at least 5 µM; in experiment [4], 3 µM; in experiment [5] (setting [44]) it was at least 5 µM; in experiment [6] (setting [44]), at least 5 µM. In addition, the Kd in experiment [7] (setting [44]), in experiment [8], in [9], in [10] (setting [44]), in experiment [11] and in experiment [12] (setting [44]) was at least 5 µM throughout. Further, the Kd is at least 5 µM in [13] (setting [44]); at least 20 µM in experiment [14]; at least 20 µM in [15]; at least 20 µM in [16]; 0.032 µM in [17]; 0.002 µM in experiment [18]. Also, the Kd in [19] is at least 20 µM; in experiment [20] it was 0.254 µM; in experiment [21], at least 20 µM; in [22], at least 20 µM; in experiment [23], at least 20 µM; in experiment [24], at least 20 µM. Further, the Kd in experiment [25] and in experiment [26] was at least 20 µM throughout.
Turning to LSEEANWAF, the Kd in experiment [27] was at least 20 µM; in [28], 0.0232 µM; in experiment [29] it was 0.0517 µM; in experiment [30] it was at least 20 µM; in experiment [31], at least 20 µM; in experiment [32], at least 20 µM. For the same sequence, the Kd in experiment [3] (setting [45]) was at least 20 µM; in experiment [5] (setting [45]), at least 20 µM; in [33], at least 20 µM; in [6] (setting [45]), 0.0423 µM; in experiment [7] (setting [45]), at least 20 µM; in experiment [34], at least 20 µM. The Kd was at least 20 µM in [10] (setting [45]); at least 20 µM in [35]; at least 20 µM in experiment [36]; 0.498 µM in experiment [12] (setting [45]); at least 20 µM in [13] (setting [45]); 0.947 µM in experiment [37]. Besides, the Kd in experiment [38] was at least 20 µM; in [39], at least 20 µM; in experiment [40] it was 0.005 µM.
FYYNAFHW: the half-maximal inhibitory concentration (IC50) in experiment [41] was at least 20 µM; in experiment [42] it was 2.61 µM.
Turning to KYFNINYYK, in [43], the IC50 was determined as 0.2 µM.

As a reminder, the Kd is the constant that tells how readily two partners part at equilibrium. The low end stands for a tighter complex, the high end for a looser complex. What is called IC50 is the midpoint of a concentration-inhibition curve.

The record behind these values is the Immune Epitope Database (IEDB).
